B1: Serine/threonine-protein kinase 3 (Homo sapiens), Q13188 (parent)
chain: MEQPPAPKSKLKKLSEDSLTKQPEEVFDVLEKLGEGSYGSVFKAIHKESGQVVAIKQVPVESDLQEIIKEISIMQQCDSPYVVKYYGSYFKNTDLWIVMEYCGAGSVSDIIRLRNKTLIEDEIATILKSTLKGLEYLHFMRKIHRDIKAGNILLNTEGHAKLADFGVAGQLTDTMAKRNTVIGTPFWMAPEVIQEIGYNCVADIWSLGITSIEMAEGKPPYADIHPMRAIFMIPTNPPPTFRKPELWSDDFTDFVKKCLVKNPEQRATATQLLQHPFIKNAKPVSILRDLITEAMEIKAKRHEEQQRELEEEEENSDEDELDSHTMVKTSVESVGTMRATSTMSEGAQTMIEHNSTMLESDLGTMVINSEDEEEEDGTMKRNATSPQVQRPSFMDYFDKQDFKNKSHENCNQNMHEPFPMSKNVFPDNWKVPQDGDFDFLKNLSLEELQMRLKALDPMMEREIEELRQRYTAKRQPILDAMDAKKRRQQNF
partner: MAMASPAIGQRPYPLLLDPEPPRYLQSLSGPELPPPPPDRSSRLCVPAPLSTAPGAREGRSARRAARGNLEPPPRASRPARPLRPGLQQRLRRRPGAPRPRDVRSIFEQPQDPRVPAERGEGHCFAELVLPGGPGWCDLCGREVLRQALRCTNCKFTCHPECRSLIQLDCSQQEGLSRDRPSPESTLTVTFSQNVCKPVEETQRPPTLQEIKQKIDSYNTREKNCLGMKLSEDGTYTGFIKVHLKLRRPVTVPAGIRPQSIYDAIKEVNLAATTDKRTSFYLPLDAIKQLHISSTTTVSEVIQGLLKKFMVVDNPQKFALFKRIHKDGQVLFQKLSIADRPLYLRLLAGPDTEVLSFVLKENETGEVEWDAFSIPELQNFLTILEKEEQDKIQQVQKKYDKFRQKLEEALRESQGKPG

Variants of: B1
Conditions: with RASSF5, Q8WWW0-1

effect of a mutation on the interaction | Variant
decreasing interaction strength | K473A
